Reference: US20210070868A1

Molecular target: w.t. (UniProt P08581)
Assay: ELISA

Kd: 0.446 nM
Substance: DN30
